B1: iBox-C24 (peptide)
chain: VSRFAALMSCRSRQPIICNDVSYL
modifications: synthetic peptide; exact limits are only in Fig. 1d; taken as the last 24 residues because the text gives a 24mer of iBox-C (C-terminal 22 aa of Inka1)
B2: iBox24C (peptide)
chain: SRQPLVLGDNCFADLVHNWMELPE
modifications: synthetic peptide; taken as the C-terminal 24 residues (paper numbering 180-203) of the 38-aa iBox; 4XBR position = Inka1 paper number minus 153; exact limits are only in Fig. 1d
B3: GST-iBox (Inka1 166–203) (domain or fragment)
chain: EAEDWTAALLNRGRSRQPLVLGDNCFADLVHNWMELPE
modifications: GST carrier left out. Limits 166-203 are the paper's, taken from the 4XBR fusion: Flag/SGS 1-12, iBox 13-50, EF linker 51-52, PAK4 278-591 from 53 (12+38+2+314=366). Entity position = paper number - 153 (F191=F38, L194=L41, V195=V42, P(0)=P30). The paper's Inka1 numbering may differ from UniProt Q96EL1 (paper's C-terminus is 285, entry is 287 aa).

Target: 6His–PAK4cat (PAK4 286–591) (human, UniProt O96013 286-591)
Sequence (O96013 286-591): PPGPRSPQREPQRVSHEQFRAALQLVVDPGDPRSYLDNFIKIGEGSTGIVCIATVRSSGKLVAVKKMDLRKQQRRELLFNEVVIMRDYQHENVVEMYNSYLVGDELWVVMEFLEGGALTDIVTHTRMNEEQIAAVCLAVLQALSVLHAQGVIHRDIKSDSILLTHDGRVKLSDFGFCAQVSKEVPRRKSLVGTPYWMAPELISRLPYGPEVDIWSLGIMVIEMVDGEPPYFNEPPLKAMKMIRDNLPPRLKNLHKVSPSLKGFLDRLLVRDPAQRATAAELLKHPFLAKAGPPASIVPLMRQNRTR
Experiment: kinase activity inhibition (GST-Raf13 phosphorylation)

IC50	Binder
300 nM	B1
382 nM	B2
36 nM	B3
229 nM	AEDWTAALLNRGRSRQPLVLGDW [iBox 23mer synthetic peptide]

From publication PMC4674680 (2015)
